Source: US20030170203A1 (Human Genome Sciences, published 2003)

T1: non-tagged form of TR6 (UniProt O95407 30-300)
T1 construct: also called TNFR-6 alpha; DcR3
T1 sequence (looked up): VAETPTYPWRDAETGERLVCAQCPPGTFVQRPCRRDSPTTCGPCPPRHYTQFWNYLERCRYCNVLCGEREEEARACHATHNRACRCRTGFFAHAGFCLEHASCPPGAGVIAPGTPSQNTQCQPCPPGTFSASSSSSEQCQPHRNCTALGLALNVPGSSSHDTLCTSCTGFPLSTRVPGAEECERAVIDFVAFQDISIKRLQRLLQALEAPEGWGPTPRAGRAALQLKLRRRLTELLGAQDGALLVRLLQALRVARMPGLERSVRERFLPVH

T2: Fc-fusion form of the extracellular domain of DR6 (UniProt O75509 42-349, limits assumed)
T2 construct: extracellular domain; not shown: Fc
T2 sequence (looked up): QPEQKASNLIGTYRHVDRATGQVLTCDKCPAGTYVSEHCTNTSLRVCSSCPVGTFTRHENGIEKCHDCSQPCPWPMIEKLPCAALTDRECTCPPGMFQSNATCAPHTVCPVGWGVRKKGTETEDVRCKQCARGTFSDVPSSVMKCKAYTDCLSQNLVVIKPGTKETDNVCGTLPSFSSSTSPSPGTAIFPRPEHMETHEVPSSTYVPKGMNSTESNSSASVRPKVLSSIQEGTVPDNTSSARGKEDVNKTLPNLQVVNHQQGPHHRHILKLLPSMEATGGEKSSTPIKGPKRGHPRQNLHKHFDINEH

T3: recombinant, untagged TNF-gamma-beta protein (aa 72-251) from E. coli (human, UniProt O95150 72-251)
T3 construct: Purified from E. coli
T3 sequence (looked up): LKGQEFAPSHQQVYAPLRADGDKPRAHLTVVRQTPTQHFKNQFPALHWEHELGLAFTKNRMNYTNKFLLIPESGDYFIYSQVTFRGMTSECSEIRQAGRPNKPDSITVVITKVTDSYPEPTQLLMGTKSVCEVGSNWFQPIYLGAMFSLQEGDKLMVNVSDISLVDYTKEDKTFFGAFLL

T4: FADD (UniProt Q13158 1-208)
T4 construct: 35S-labeled by in vitro transcription-translation for the GST pull-down; also called AU1-FADD; FADD/MORT1
T4 sequence (looked up): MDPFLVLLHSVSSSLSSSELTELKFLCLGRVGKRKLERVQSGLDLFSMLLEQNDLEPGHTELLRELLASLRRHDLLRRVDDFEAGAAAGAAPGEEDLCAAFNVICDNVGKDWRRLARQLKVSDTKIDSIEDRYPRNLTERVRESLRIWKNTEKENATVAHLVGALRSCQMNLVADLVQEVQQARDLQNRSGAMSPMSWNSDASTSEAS

T5: RIP (UniProt Q13546 1-671, limits assumed)
T5 construct: 35S-labeled by in vitro translation for the GST pull-down; also called myc-RIP
T5 sequence (looked up): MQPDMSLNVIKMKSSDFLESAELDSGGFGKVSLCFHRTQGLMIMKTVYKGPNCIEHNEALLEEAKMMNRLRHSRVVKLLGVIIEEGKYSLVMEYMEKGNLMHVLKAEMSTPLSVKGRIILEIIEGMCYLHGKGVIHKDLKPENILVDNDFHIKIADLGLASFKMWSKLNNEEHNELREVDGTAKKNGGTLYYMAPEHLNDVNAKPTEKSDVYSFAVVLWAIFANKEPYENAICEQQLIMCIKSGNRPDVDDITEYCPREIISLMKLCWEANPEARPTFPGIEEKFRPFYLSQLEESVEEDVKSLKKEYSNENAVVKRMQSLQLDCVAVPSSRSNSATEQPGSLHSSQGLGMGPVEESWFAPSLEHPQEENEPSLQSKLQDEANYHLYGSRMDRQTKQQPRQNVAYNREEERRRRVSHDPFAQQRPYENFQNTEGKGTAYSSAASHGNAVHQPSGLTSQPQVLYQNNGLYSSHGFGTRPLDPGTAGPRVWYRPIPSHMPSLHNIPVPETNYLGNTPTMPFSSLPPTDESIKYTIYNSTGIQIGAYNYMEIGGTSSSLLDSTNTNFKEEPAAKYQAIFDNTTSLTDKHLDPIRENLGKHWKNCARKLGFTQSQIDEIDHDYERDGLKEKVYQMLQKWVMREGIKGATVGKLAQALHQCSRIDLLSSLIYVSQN

B1: full length TNF-gamma-beta expressed on the cell surface (ligand, human, UniProt O95150 1-251, looked up)
chain: MAEDLGLSFGETASVEMLPEHGSCRPKARSSSARWALTCCLVLLPFLAGLTTYLLVSQLRAQGEACVQFQALKGQEFAPSHQQVYAPLRADGDKPRAHLTVVRQTPTQHFKNQFPALHWEHELGLAFTKNRMNYTNKFLLIPESGDYFIYSQVTFRGMTSECSEIRQAGRPNKPDSITVVITKVTDSYPEPTQLLMGTKSVCEVGSNWFQPIYLGAMFSLQEGDKLMVNVSDISLVDYTKEDKTFFGAFLL
notes: whole, on cells; also called TNF-gamma-beta expressing cells
B2: extracellular domain of human DR3 (aa 1-199) fused at its C-terminus to the Fc domain of human IgG1 (Fc fusion, not shown: a dimerising Fc or GST)
chain: QGGTRSPRCDCAGDFHKKIGLFCCRGCPAGHYLKAPCTEPCGNSTCLVCPQDTFLAWENHHNSECARCQACDEQASQVALENCSAVADTRCGCKPGWFVECQVSQCVSSSPFYCQPCLDCGALHRHTRLLCSRRDTDCGTCLPGFYEHGDGCVSCPTSTLGSCPERCAAVCGWRQ
notes: also called DR3-Fc; DR3.Fc
B3: GST fusion of the cytoplasmic domain of DR3 (amino acid residues 215-393 (SEQ ID NO:4)) (other)
chain: AGMEALTPPPATHLSPLDSAHTLLAPPDSSEKICTVQLVGNSWTPGYPETQEALCPQVTWSWDQLPSRALGPAAAPTLSPESPAGSPAMMLQPGPQLYDVMDAVPARRWKEFVRTLGLREAEIEAVEVEIGRFRDQQYEMLKRWRQQQPAGLGAVYAALERMGLDGCVEDLRSRLQRGP
notes: Made in E. coli BL21 (DE3) pLysS and immobilized on glutathione-agarose beads; The results paragraph calls it GST-DDCR (DDCR is the former name of DR3); also called GST-DR3; GST-DDCR; not shown: glutathione S-transferase from vector pGSTag
B4: Fc-fusion form of the extracellular domain of DcR1 (Fc fusion, UniProt O14798 26-221, looked up)
chain: ATTARQEEVPQQTVAPQQQRHSFKGEECPAGSHRSEHTGACNPCTEGVDYTNASNNEPSCFPCTVCKSDQKHKSSCTMTRDTVCQCKEGTFRNENSPEMCRKCSRCPSGEVQVSNCTSWDDIQCVEEFGANATVETPAAEETMNTSPGTPAPAAEETMNTSPGTPAPAAEETMTTSPGTPAPAAEETMTTSPGTPA
notes: extracellular domain; not shown: Fc
B5: Fc-fusion form of the extracellular domain of DcR2 (Fc fusion, UniProt Q9UBN6 56-211, looked up)
chain: ATIPRQDEVPQQTVAPQQQRRSLKEEECPAGSHRSEYTGACNPCTEGVDYTIASNNLPSCLLCTVCKSGQTNKSSCTTTRDTVCQCEKGSFQDKNSPEMCRTCRTGCPRGMVKVSNCTPRSDIKCKNESAASSTGKTPAAEETVTTILGMLASPYH
notes: as for B4
B6: Fc-fusion form of the extracellular domain of OPG (Fc fusion, UniProt O00300 22-194, looked up)
chain: ETFPPKYLHYDEETSHQLLCDKCPPGTYLKQHCTAKWKTVCAPCPDHYYTDSWHTSDECLYCSPVCKELQYVKQECNRTHNRVCECKEGRYLEIEFCLKHRSCPPGFGVVQAGTPERNTVCKRCPDGFFSNETSSKAPCRKHTNCSVFGLLLTQKGNATHDNICSGNSESTQK
notes: as for B4
B7: Fc-fusion form of the extracellular domain of RANK (Fc fusion, UniProt Q9Y6Q6 30-212, looked up)
chain: IAPPCTSEKHYEHLGRCCNKCEPGKYMSSKCTTTSDSVCLPCGPDEYLDSWNEEDKCLLHKVCDTGKALVAVVAGNSTTPRRCACTAGYHWSQDCECCRRNTECAPGLGAQHPLQLNKDTVCKPCLAGYFSDAFSSTDKCRPWTNCTFLGKRVEHHGTEKSDAVCSSSLPARKPPNEPHVYLP
notes: as for B4
B8: Fc-fusion form of the extracellular domain of AITR (Fc fusion, UniProt Q9Y5U5 26-162, looked up)
chain: QRPTGGPGCGPGRLLLGTGTDARCCRVHTTRCCRDYPGEECCSEWDCMCVQPEFHCGDPCCTTCRHHPCPPGQGVQSQGKFSFGFQCIDCASGTFSGGHEGHCKPWTDCTQFGFLTVFPGNKTHNAVCVPGSPPAEP
notes: as for B4
B9: Fc-fusion form of the extracellular domain of OX40 (Fc fusion, UniProt P43489 29-214, looked up)
chain: LHCVGDTYPSNDRCCHECRPGNGMVSRCSRSQNTVCRPCGPGFYNDVVSSKPCKPCTWCNLRSGSERKQLCTATQDTVCRCRAGTQPLDSYKPGVDCAPCPPGHFSPGDNQACKPWTNCTLAGKHTLQPASNSSDAICEDRDPPATQPQETQGPPARPITVQPTEAWPRTSQGPSTRPVEVPGGRA
notes: as for B4
B10: Fc-fusion form of the extracellular domain of TNFR1 (Fc fusion, UniProt P19438 30-211, looked up)
chain: LVPHLGDREKRDSVCPQGKYIHPQNNSICCTKCHKGTYLYNDCPGPGQDTDCRECESGSFTASENHLRHCLSCSKCRKEMGQVEISSCTVDRDTVCGCRKNQYRHYWSENLFQCFNCSLCLNGTVHLSCQEKQNTVCTCHAGFFLRENECVSCSNCKKSLECTKLCLPQIENVKGTEDSGTT
notes: extracellular domain; also called TNFR1-Fc; TNFRI.Fc; not shown: Fc

Legend:
non-tagged form of TR6 = target: T1, non-tagged form of TR6; test: flow cytometry, competition with DR3-Fc for TNF-gamma-beta on HEK293F cells
Protocol: (§1) TR6 has been previously described as a decoy receptor (Pitti et al., Nature 396:699-703 (1998); Yu et al., J. Biol Chem. 274:13733-6 (1999)) capable of competing with Fas and HveA for binding of FasL and LIGHT, respectively.
(§2) One million cells, in 0.1 ml of FACS buffer (PBS, 0.1% BSA, 0.1% NaN₃), were incubated with 0.1-1 microgram of protein or antibody at RT for 15 min. The cells were washed with 3 ml of FACS buffer, reacted with biotinylated primary antibody, and stained with PE-conjugated secondary antibody at RT for 15 min. Cells were then washed again, resuspended in 0.5 microgram/ml of propidium iodide, and live cells were gated and analyzed on a FACScan using the CellQuest software (BD Biosciences).

[1] = target: T2, Fc-fusion form of the extracellular …; test: flow cytometry on HEK293F stable transfectants expressing full length TNF-gamma-beta
Protocol: as §1, §2

[2] = target: T3, recombinant, untagged TNF-gamma-beta …; test: BIAcore 3000 (SPR), DR3-Fc amine-coupled to CM5 chip, TNF-gamma-beta 3-370 nM in flow, 1:1 binding model; DR3-Fc on the chip
Protocol: (§3) TNFR-Fc were covalently immobilized to the BIAcore sensor chip (CM5 chip) via amine groups using N-ethyl-N′-(dimethylaminopropyl) carbodiimide/N-hydroxysuccinimide chemistry. […] The amount of bound protein was determined during washing of the flow cell with HBS buffer (10 mM HEPES, pH 7.4, 150 mM NaCl, 3.4 mM EDTA, 0.005% Surfactant P20). The flow cell surface was regenerated by displacing bound protein by washing with 20 microliters of 10 mM glycine-HCl, pH 2.3. For kinetic analysis, the on and off rates were determined using the kinetic evaluation program in BIAevaluation 3 software using a 1:1 binding model and the global analysis method.

[3] = target: T3, recombinant, untagged TNF-gamma-beta …; test: BIAcore 3000 (SPR), DR3-Fc amine-coupled to CM5 chip, three batches of TNF-gamma-beta, 1:1 binding model; DR3-Fc; average of three batches of TNF-gamma-beta
Protocol: as §3

FADD = target: T4, FADD; test: GST pull-down of in vitro translated 35S-labeled protein, SDS-PAGE and autoradiography
Protocol: (§4) In vitro binding experiments were performed as described previously (A. M. Chinnaiyan et al., Cell 81: 505-12 (1995); M. P. Boldin et al., J Biol Chem 270: 7795-8 (1995); F. C. Kischkel etal., EMBO 14: 5579-5588 (1995)). […] Following translation, equal amounts of total ³⁵S-labeled reticulocyte lysate were diluted into 150 μl GST binding buffer (50 mM Tris, pH 7.6,120 mM NaCl, 1% NP-40) and incubated for 2 hrs. at 4° C. with the various GST fusion proteins complexed to beads, following the beads were pelleted by plus centrifugation, washed three times in GST buffer, boiled in SDS-sample buffer and resolved on a 12.5% SDS-PAGE. Bound proteins were visualized following autoradioraphy at −80° C. […] After the beads were washed, retained proteins were analyzed by SDS-PAGE and autoradiography. The gel was Coomassie stained to monitor equivalency of loading.
(§5) As an initial screen, in vitro translated radiolabeled DAMs were precipitated with various glutathione S-transferase (GST) fusion proteins immobilized on glutathione-Sepharose beads.

RIP = target: T5, RIP; test: as above
Protocol: as §4, §5

[4] = target: B1; test: flow cytometry on HEK293F stable transfectants expressing full length TNF-gamma-beta
Protocol: as §1, §2

Binder	binding result [4]	other results
B1	–	binding result (non-tagged form of TR6): binds; binding result [1]: no binding
B2	–	koff [2]: 0.00413 s⁻¹; kon [2]: 639000 M⁻¹ s⁻¹; Kd [3]: 6.45 nM
B3	–	binding result (FADD): no binding; binding result (RIP): no binding
B4	no binding	–
B5	no binding	–
B6	no binding	–
B7	no binding	–
B8	no binding	–
B9	no binding	–
B10	no binding	–
